# Patent US20060040277A1 (published 2006)
# T1: GST-ATIPmouse-short fusion protein (from pGEX-4T1-GST-ATIPmouse-short), on glutathione-agarose beads (mouse, UniProt Q5HZI1 937-1053)
# T1 construct: also called GA-GST-ATIPmouse-short; GST-ATIPc; not shown: glutathione S-transferase (GST) encoded by pGEX-4T-1 (Pharmacia)
# T1 sequence: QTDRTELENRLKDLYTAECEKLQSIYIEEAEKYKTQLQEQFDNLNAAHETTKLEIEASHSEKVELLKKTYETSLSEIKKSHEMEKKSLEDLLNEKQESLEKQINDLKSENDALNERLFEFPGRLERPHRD
# B1: MBP-AT1: fusion of Maltose Binding Protein and the C-terminal end of the human AT1 receptor (Leu 297-Glu 359) (receptor, UniProt P30556 297-359, looked up, not shown: large carriers)
# chain: LNPLFYGFLGKKFKRYFLQLLKYIPPKAKSHSNLSTKMSTLSYRPSDNVSSSTKKPAPCFEVE
# notes: range 297-359
# Target: T1, GST-ATIPmouse-short fusion protein …
# Test: GST pull-down, SDS-PAGE and immunoblot with anti-MBP
binder,measurement,value
B1,binding result,no binding
